The values that follow come from IntAct's records for PubMed 17167418.

B1: Synaptotagmin-2 (Mus musculus), P46097 (parent)
chain: MRNIFKRNQEPNVAPATTTATMPLAPVAPADNSTESTGPGESQEDMFAKLKEKFFNEINKIPLPPWALIAMAVVAGLLLLTCCFCICKKCCCKKKKNKKEKGKGMKNAMNMKDMKGGQDDDDAETGLTEGEGEGEEEKEPENLGKLQFSLDYDFQANQLTVGVLQAAELPALDMGGTSDPYVKVFLLPDKKKKYETKVHRKTLNPAFNETFTFKVPYQELAGKTLVMAIYDFDRFSKHDIIGEVKVPMNTVDLGQPIEEWRDLQGGEKEEPEKLGDICTSLRYVPTAGKLTVCILEAKNLKKMDVGGLSDPYVKIHLMQNGKRLKKKKTTVKKKTLNPYFNESFSFEIPFEQIQKVQVVVTVLDYDKLGKNEAIGKIFVGSNATGTELRHWSDMLANPRRPIAQWHSLKPEEEVDALLGKNK

The variants in the test derive from B1. The following applies: with bxb_clobo botB.
As to MRNIFKRNQEPNVAPATTTATMPLAPVAPADNSTESTGPGESQEDMAAKLKEKFFNEINKIPLPPWALIAMAVVAGLLLLTCCFCICKKCCCKKKKNKKEKGKGMKNAMNMKDMKGGQDDDDAETGLTEGEGEGEEEKEPENLGKLQFSLDYDFQANQLTVGVLQAAELPALDMGGTSDPYVKVFLLPDKKKKYETKVHRKTLNPAFNETFTFKVPYQELAGKTLVMAIYDFDRFSKHDIIGEVKVPMNTVDLGQPIEEWRDLQGGEKEEPEKLGDICTSLRYVPTAGKLTVCILEAKNLKKMDVGGLSDPYVKIHLMQNGKRLKKKKTTVKKKTLNPYFNESFSFEIPFEQIQKVQVVVTVLDYDKLGKNEAIGKIFVGSNATGTELRHWSDMLANPRRPIAQWHSLKPEEEVDALLGKNK [F47A], the “effect of a mutation on the interaction” value is given as “disrupting interaction strength”.

Consider MRNIFKRNQEPNVAPATTTATMPLAPVAPADNSTESTGPGESQEDMFAKLKEKAFNEINKIPLPPWALIAMAVVAGLLLLTCCFCICKKCCCKKKKNKKEKGKGMKNAMNMKDMKGGQDDDDAETGLTEGEGEGEEEKEPENLGKLQFSLDYDFQANQLTVGVLQAAELPALDMGGTSDPYVKVFLLPDKKKKYETKVHRKTLNPAFNETFTFKVPYQELAGKTLVMAIYDFDRFSKHDIIGEVKVPMNTVDLGQPIEEWRDLQGGEKEEPEKLGDICTSLRYVPTAGKLTVCILEAKNLKKMDVGGLSDPYVKIHLMQNGKRLKKKKTTVKKKTLNPYFNESFSFEIPFEQIQKVQVVVTVLDYDKLGKNEAIGKIFVGSNATGTELRHWSDMLANPRRPIAQWHSLKPEEEVDALLGKNK [F54A], for which the “effect of a mutation on the interaction” value was “disrupting interaction strength”.

On to MRNIFKRNQEPNVAPATTTATMPLAPVAPADNSTESTGPGESQEDMFAKLKEKFANEINKIPLPPWALIAMAVVAGLLLLTCCFCICKKCCCKKKKNKKEKGKGMKNAMNMKDMKGGQDDDDAETGLTEGEGEGEEEKEPENLGKLQFSLDYDFQANQLTVGVLQAAELPALDMGGTSDPYVKVFLLPDKKKKYETKVHRKTLNPAFNETFTFKVPYQELAGKTLVMAIYDFDRFSKHDIIGEVKVPMNTVDLGQPIEEWRDLQGGEKEEPEKLGDICTSLRYVPTAGKLTVCILEAKNLKKMDVGGLSDPYVKIHLMQNGKRLKKKKTTVKKKTLNPYFNESFSFEIPFEQIQKVQVVVTVLDYDKLGKNEAIGKIFVGSNATGTELRHWSDMLANPRRPIAQWHSLKPEEEVDALLGKNK [F55A], for which the “effect of a mutation on the interaction” value was “disrupting interaction strength”.
